Test results published in paper PMC4753561.
Values joined by “and” are separate entries in the source; they are usually repeats but may differ in a detail not shown here. Equal entries are not always repeated. Where two headings read alike, the source gives them in different places.

Legend:
[1] = biological target: Hepatitis B Virus core protein assembly domain (Cp149) dimer (Hepatitis B Virus); assay: resistive-pulse sensing
[2] = biological target: Hepatitis B Virus core protein assembly domain (Cp149) dimer (Hepatitis B Virus); assay: SEC
[3] = biological target: Hepatitis B Virus core protein assembly domain (Cp149) dimer (Hepatitis B Virus); assay: resistive-pulse sensing; remark: listed apart in the source

**Q.** How did the pseudo-critical dimer concentration [1] turn out when “Hepatitis B Virus core protein assembly domain (Cp149) dimer (domain or fragment)” was run?
**A.** 0.5 µM

**Q.** And the stoichiometry N [1]?
**A.** 105 dimers and 77 dimers

**Q.** What about the pseudo-critical dimer concentration [2] of the same substance?
**A.** 0.5 µM

**Q.** And the stoichiometry N [3]?
**A.** 90 subunit and 120 subunit
